± gives the standard deviation of the averaged measurements.
System: ATP
Experiment: switch fluorescence ratio, 500 uM ATP over buffer (Cy3 cluster intensity, sum of 5 cycles each) (fold (ratio)); higher = stronger signal-on switching upon ATP binding; sequences stand for … in TCGTCGGCAGCGTCAGATGTGTATAAGAGACAGTTTTTTTTTTTTTTTTTTTTTTTTT…TC
Conditions: aptamer strand: ATP DNA aptamer (quencher-CACCTGGGGGAGTATTGCGGAGGAAGG + anchor), 100 nM annealed; ATP concentration: 500 uM
In short: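 For every switch-domain sequence, the fluorescence ratio is the mean of per-cluster values, each being summed target-cycle Cy3 intensity over summed buffer-cycle Cy3 intensity. Clusters outside 100-1000 RFU were excluded. On a modified Illumina MiSeq flow-cell, the Cy3-labelled switching-strand clusters were annealed to 100 nM quencher-labelled ATP aptamer, imaged in selection buffer and then after 15 min with 500 uM ATP at 22 °C. Five such cycles were run, with NaOH stripping and re-annealing between them.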
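Further: ATP exposure 15 min at 22 °C before imaging.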

TTGGGGAACG
switch fluorescence ratio: 1.41 ± 0.62

GTTGCTACCA
switch fluorescence ratio: 1.01 ± 0.053

TTCAGGGGTT
switch fluorescence ratio: 1.04 ± 0.068

GGCAGGCGGA
switch fluorescence ratio: 1 ± 0.012

TTTAGCCTCG
switch fluorescence ratio: 0.992 ± 0.046

AAGCAGGGGT
switch fluorescence ratio: 0.982 ± 0.074

GGAAGGTATG
switch fluorescence ratio: 1.02 ± 0.071

CGGAATGTAT
switch fluorescence ratio: 0.992 ± 0.04

ATGCAATCTT
switch fluorescence ratio: 1.11 ± 0.06

CAGGGCAAGG
switch fluorescence ratio: 1.12 ± 0.08

CGTCATCCAT
switch fluorescence ratio: 0.9881 ± 0.0021

CCAAGGGTGC
switch fluorescence ratio: 1.63 ± 0.11

GCTGTTGGGA
switch fluorescence ratio: 0.9968 ± 0.0078

AAATGTTACA
switch fluorescence ratio: 1.06 ± 0.021

TCATTTTGAA
switch fluorescence ratio: 1.01 ± 0.0012

TACGCATTTG
switch fluorescence ratio: 1.08 ± 0.011

CAGTGAGACT
switch fluorescence ratio: 1.02 ± 0.037

TTTAGATTCA
switch fluorescence ratio: 1.001 ± 0.0043

TTAAAAGGCT
switch fluorescence ratio: 0.9974 ± 0.0012

GAATATCAAG
switch fluorescence ratio: 0.9871 ± 0.0064

TGCAGCTAGC
switch fluorescence ratio: 1.05 ± 0.021

TATTAAGAAT
switch fluorescence ratio: 0.987 ± 0.0043

TGTGGTTTTG
switch fluorescence ratio: 0.9586 ± 0.0042

ATCGCGGGGG
switch fluorescence ratio: 1.009 ± 0.0021

GACTTTATGG
switch fluorescence ratio: 0.99 ± 0.035

CCAGGTGGCT
switch fluorescence ratio: 2.64 ± 0.3

ACATTGAACG
switch fluorescence ratio: 1.07 ± 0.017

TTTAGGGGTT
switch fluorescence ratio: 1.02 ± 0.083

CGGTGTGCGG
switch fluorescence ratio: 0.995 ± 0.037

TGAGTTTTGG
switch fluorescence ratio: 1.02 ± 0.015

CAAATGGGAC
switch fluorescence ratio: 1.09 ± 0.061

GATAGGGTAA
switch fluorescence ratio: 0.988 ± 0.039

TTTTTTTAT
switch fluorescence ratio: 1.014 ± 0.01

GTTGGATATT
switch fluorescence ratio: 0.9976 ± 0.0064

GCATTATGGG
switch fluorescence ratio: 1.02 ± 0.034

AAAGTTATAC
switch fluorescence ratio: 1.12 ± 0.037

TGAGGGGTCA
switch fluorescence ratio: 1.002 ± 0.0076

CAATATAGTG
switch fluorescence ratio: 0.981 ± 0.024

CCCTTGACGG
switch fluorescence ratio: 1.07 ± 0.14

TTTGGTGTCT
switch fluorescence ratio: 0.96 ± 0.025

TCGTTTGGTG
switch fluorescence ratio: 0.986 ± 0.045

CGATGGAGAG
switch fluorescence ratio: 1.0297 ± 0.00016

AAATAATTCG
switch fluorescence ratio: 0.997 ± 0.032

ATGTTCTCGT
switch fluorescence ratio: 0.995 ± 0.021

TCCAGATGGA
switch fluorescence ratio: 0.977 ± 0.037

GTTTCTGGCC
switch fluorescence ratio: 0.98 ± 0.019

CATCTGCGGG
switch fluorescence ratio: 1.16 ± 0.17

GAGGTATTAT
switch fluorescence ratio: 0.9688 ± 0.0074

GGGGTTATAA
switch fluorescence ratio: 0.998 ± 0.043

GAGGGGTATT
switch fluorescence ratio: 0.986 ± 0.016

TATCTAGGGG
switch fluorescence ratio: 0.981 ± 0.035

ACTTGTGTAA
switch fluorescence ratio: 1.018 ± 0.0021

AACGAAAATG
switch fluorescence ratio: 0.997 ± 0.053

GGGGATAAGC
switch fluorescence ratio: 0.992 ± 0.048

GTTCACTACC
switch fluorescence ratio: 1.15 ± 0.0083

GCGCAGTCGG
switch fluorescence ratio: 1.034 ± 0.0048

CAGTATGTCC
switch fluorescence ratio: 0.966 ± 0.035

TAGGTGAAGG
switch fluorescence ratio: 1 ± 0.0069

GTTGGAACAG
switch fluorescence ratio: 0.969 ± 0.043

TTTGATTTGC
switch fluorescence ratio: 0.961 ± 0.042

GGTTTAGGGA
switch fluorescence ratio: 0.996 ± 0.039

GAGTAACTGG
switch fluorescence ratio: 0.983 ± 0.027

GTGGCGCTTT
switch fluorescence ratio: 0.976 ± 0.023

CGTATGCGCA
switch fluorescence ratio: 0.97 ± 0.028

AAATTAATGT
switch fluorescence ratio: 1 ± 0.018

TGGGCTATGC
switch fluorescence ratio: 0.986 ± 0.059

GGGATAGCCG
switch fluorescence ratio: 1 ± 0.059

ATGAAAAGGT
switch fluorescence ratio: 0.976 ± 0.013

AAGAAAGGGC
switch fluorescence ratio: 1 ± 0.041

ACAAGTCGTT
switch fluorescence ratio: 0.972 ± 0.039

AATTGTAGTT
switch fluorescence ratio: 0.9786 ± 0.0048

TGTGATGCTG
switch fluorescence ratio: 1.02 ± 0.044

TAGTTTTTAT
switch fluorescence ratio: 1.02 ± 0.014

AAGTTGATTA
switch fluorescence ratio: 1.006 ± 0.004

TGCATTCAGT
switch fluorescence ratio: 0.99 ± 0.048

CGGTAGGGGC
switch fluorescence ratio: 0.968 ± 0.015

GCAGGACGAC
switch fluorescence ratio: 2.38 ± 0.49

TTTTCCAAGG
switch fluorescence ratio: 1.06 ± 0.031

AAATGAATGG
switch fluorescence ratio: 1.0177 ± 0.00097

TGTGTGGCGC
switch fluorescence ratio: 1.02 ± 0.032

CAAGTGTATC
switch fluorescence ratio: 1.02 ± 0.045

TGAAAGCGCC
switch fluorescence ratio: 1.07 ± 0.03

TTGAAGGGTG
switch fluorescence ratio: 1.05 ± 0.11

TTTTGACAGT
switch fluorescence ratio: 0.996 ± 0.039

AAGGTCGGGA
switch fluorescence ratio: 0.9966 ± 0.0087

CGTAGATACA
switch fluorescence ratio: 1.03 ± 0.036

AGGCGGGGCG
switch fluorescence ratio: 1.02 ± 0.022

TAAGGGCGGA
switch fluorescence ratio: 1.01 ± 0.023

TAGTGTTGTG
switch fluorescence ratio: 0.971 ± 0.055

ATTTTGGCAG
switch fluorescence ratio: 0.99 ± 0.049

ATTGGGCTGC
switch fluorescence ratio: 0.977 ± 0.01

AGGTCCGGGT
switch fluorescence ratio: 0.9981 ± 0.0065

TGGTAAATCT
switch fluorescence ratio: 1 ± 0.036

AGTTTTGCTC
switch fluorescence ratio: 0.981 ± 0.012

AAGTGGAGTG
switch fluorescence ratio: 0.999 ± 0.041

AAAAGGGGG
switch fluorescence ratio: 0.976 ± 0.018

CCAGAGGTTG
switch fluorescence ratio: 0.999 ± 0.021

TTGTTTATGG
switch fluorescence ratio: 0.983 ± 0.015

ACTCCTCTTT
switch fluorescence ratio: 1.093 ± 0.0093

TTAAGATGGT
switch fluorescence ratio: 0.983 ± 0.029

— the supplement of paper PMC10126150
